{"source": "the DeepSol protein solubility set"}
{"assay": "soluble on expression in E. coli; label from the status in PepcDB or PDB records"}
{"sequence": "MGHHHHHHGGHMSLPNFFTPEFGPLRGVRVITTGSIIAGPTAGTILADLGAEVIHVERPKVGDTLRVVPPYFEADGKRIGGEFVCVTRNKLSVALDIKSEEGRKIFYELLKHADIFIENLVWLEERYGITDKDMLEANPRLVIVHVSGFGRSEFGGEDEKCGRGSYDIISQAYSGWCKLAAPPGMEVHRLPLYIGDYVTALFGVIGALSAYVYAKETGRGQVVDVAQFEAIARVIEMYYTMYHNLGINREGEGLRVFNTQPYGLYRVKDGWIAIGAIGPGLYQRFIQALAKATGINPADYPYEECAASPEAVNSEKGRELDRIFNEYLMSHTKEEVEKLFNAFRVPCSRVSTPEDVVRDRHWIERGDIIEVLDETTGRLVKQVGIVPKFSETPGRIWRGPPKLGSDTKKVLKGLLNLSDEQIDELKAKGVVDFEGGS", "soluble on expression in E. coli": "soluble"}
{"sequence": "MGSDKIHHHHHHMSLQISLVNNISQIGSQAWHALFGSEHPFTRYEYLLALESSGACSAQTGWQPRHLIVIEKAAVTENPHSAAAKTDNILALMPLYEKHHSYGEYVFDWAWAEAYERHGLAYYPKLLCAVPFTPVTGTRLAMDSRLDVGQQDAVWTAVVDFLQQQIMTQGYSSWHYLFTNATQSAVLAQAHLTPPSQSQSNQAQRNQTQALQPQANSQASAIKGQPIARLGTQFHWFNRGYRQFDDFLQVMTSRKRKNIQKERAAISKFELSFEFIHGDNITSSQWRSFSLCYQQTYLKRSGHTGYLNSEFFQAIGTSMADAIRLLRVSDKAGKDIAYALYFASDSRLYGRYWGAFEDIPGLHFEACYYQGIEYAIAQGLSCFDAGAQGEHKVLRGFEPIETHSFHAIAHEGFKGAIEDFCQQERRNMQIYMAEQAKNLPYKNSQ", "soluble on expression in E. coli": "not soluble"}
{"sequence": "MGSDKIHHHHHHMIAAIDIGTESARLMFKSNGEWKVLKKSYRIFFPSPEAAEQDPNEIFSAVFDLLKQVPNEDEVLYVGMSSVFHSIIGLDENLNPVTPLLNWADRRSFREKEELEKKYGVRFFYEKTACPLHPMYWPSKILWMKKNSNAKKFCSIKAYIVNKMTREFVEELSLASGTGMMNIHSLEWDGEILEITGVRKEDLPEIKSPYTQLRVKDEIAKELGFKKVYLVLGGGDGVMTNVGVNVMDPDSATVTIGTSGAFRVVMDRPVIDREGISTWCYLIDEENYVLGGAINNGGIVLMWLRDIMKFKDYNDIIEEAKESPAGANGLVFLPFLNGERAPHWRERYRGVLVGLTSSHRRSDIARAALEGICFRIKDIHNAVKRVGSVDPNRIVATGGFTSSPYWVQLLSDVLGKDIIVTNVENPSAFGAYVMALKSLGEDVEGFIEKEVRVERVFHPDSERNAVYERLYNDYKFLYEKLVDYYYKE", "soluble on expression in E. coli": "not soluble"}
{"sequence": "IGKLKLSARGTFTFTRNKILEYDELPQKYGYQAVTGTRVSENTLYIADRLYTEDDFIVSTNANGLKTYKLRSELPRPTLGGLIGPGDIKYVDVNGDGVIDSYDQVRGVGNPSTPEIIYGFGLNAEYKGFYASIFFQGAGNTSVLLGGATSEGWYPFSWGVDQSNYRTFALDRWTENNPSQDVIIPRLHKNNANNANNRVASTWWLRNGSFLRLKNIEFGYQLPKKFMDKIGFEAARIYIMGYNLAVWDDIKYFDPEAGNANAGLNYPLPRTFTLGLDFTF", "soluble on expression in E. coli": "not soluble"}
{"sequence": "MKREILLERIDKLKQLMPWYVLEYYQSKLAVPYSFTTLYEYLKEYDRFFSWVLESGISNADKISDIPLSVLENMSKKDMESFILYLRERPLLNANTTKQGVSQTTINRTLSALSSLYKYLTEEVENDQGEPYFYRNVMKKVSTKKKKETLAARAENIKQKLFLGDETEGFLTYIDQEHPQQLSNRALSSFNKNKERDLAIIALLLASGVRLSEAVNLDLRDLNLKMMVIDVTRKGCKRDSVNVAAFAKPYLENYLAIRNQRYKTEKTDTALFLTLYRGVPNRIDASSVEKMVAKYSEDFKVRVTPHKLRHTLATRLYDATKSQVLVSHQLGHASTQVTDLYTHIVSDEQKNALDSL", "soluble on expression in E. coli": "not soluble"}
{"sequence": "MTDEKKKGVIFDIQRWSLHDGPGIRTNVFFKGCPLSCQWCSNPESQEFCREPALFGDKCIHCLSCVEHCPHGAIHTSDPWIRLDYEICRGRCSRGAEQENAFCCTKACYAQALTVMGEVMTADMVLEEVMRDEGIYRSSGGGVTMTGGEPLAQPEFLLELLTAAKERGLHTVMESSMFAEWDKIQACLPYLDVLFMDMKLLPEEKHVKYTGVSNQIILDNIRRAAAYARTHRLELAVRTPVIPGINDTSGDIAAMADWIKKHLPGVERYELLPYHRLGRGKYRNIGREYQLGDIVPPSKEKMKELEAVVSKLGLRRE", "soluble on expression in E. coli": "not soluble"}
{"sequence": "TSSTIFSGVAIYVNGYTDPSAEELRKLMMLHGGQYHVYYSRSKTTHIIATNLPNAKIKELKGEKVIRPEWIVESIKAGRLLSYIPYQLYT", "soluble on expression in E. coli": "soluble"}
{"sequence": "MTESAPSAFFTTSTPADHVHEEESSNTGYFENLPENDIHSFFEIDATSEWIKQGNHQRIALQFPDSLLPYSEKVTKLIESRFRSESAKKTFVLADTSYRSCCVDEVAAAHADCTALVHFGEACHSAPTDKIDVKYVLGSMPIFIDQFRMEFQNVADQLTAEHIVLLMDSCFSHEQEKVAAVIKEVLPGNRHVECSLLPSEDVLKQNRQNIYLGREIPSCLRNNQPTDLIFCGFPNSPLLPIWLLSYPSCSTVSHFNPINKTIQHESTRSSRLLRKRLFLVEKLKDADTVGLVVGSVGVDKHREAVKRMREMCKKAGKKIYVISVGKINVPKLSNFSTDIDVFVLLSCPFGVVLDSSDYFRPVVSYFEAEIALNPAKTWAADFGWSAEFAAFLEDKIETEVPDDKAAGDFSLISGKVRVQKTEEEKNGDGPSSVAIYNPGYCNDRTWKGLNDGVSTAEDSTKMGEGRSGIAQGYSGK", "soluble on expression in E. coli": "not soluble"}
{"sequence": "MPRKQLKGETHDQKAQIASAFGEIEQSKIFLDKRSESAAVKMDIADLLKEIIQKQLRKDYDPEVESNIFINPERGDFEVYILKKIVKEVDLPTIEIGLDEVRQIDDSLELGDYYEEGPIKLDDYLTRKSIQIIKQSVQKKVRDLERLAVYEECLEKVGEVVAGEVYQVRPNEVIFTYNTSKDHRVELVLPKSEMMKKDNPRRTPRMKLYVKRIEREKVKVRNDDGTVEEREKPDGGMKVIVSRVDDRFLYKLFESEVPEILDGLIVIKGIARVPGERAKVAVESTSSRIDPVGATVGYRGKRIQSIVKELNNENIDVIYYTDEPQVFIARALQPAKIDPMTVHADMKTRKARVMLKPDQIKYAIGKNGNNIHLAEKLTGYEIDVYRDVIDKSLEDPNDIDIIEFREEFGDDMIYQLLDGGLDTAKKILKGGVEKIEEALLGTQKSEELFVFNKTRKPVKPKERRITDDEKRYWKKIAETIYRTVREQFNDEDLKALLDDSHERSLKGDGIDPEEIRDKETNLEHHHHHH", "soluble on expression in E. coli": "not soluble"}
{"sequence": "MALWGGRFSQAADQRFKQFNDSLRFDYRLAEQDIIGSVAWSKALVTVGVLNADEQQQLEQALSVLLEEVQANPHAILASDAEDIHSWVETKLIDKVGDLGKKLHTGRSRNDQVATDLKLWCKFQITELQTAVQQLQQALVMTAEANQDAVMPGYTHLQRAQPVTFAHWCLAYVEMLSRDESRLQDTLKRLDVSPLGCGALAGTAYAIDREQLAGWLGFASATRNSLDSVSDRDHVLELLSDASIGMVHLSRFAEDLIFFNSGEAAFVDLSDRVTSGSSLMPQKKNPDALELIRGKCGRVQGALTGMTMTLKGLPLAYNKDMQEDKEGLFDALDTWLDCLHMAALVLDGIQVKRPRCKEAAEQGYANATELADYLVAKGVPFREAHHIVGEAVVEAIRQGKALEALALSDLQQFSSVIGDDVYPILALQSCLDKRVAKGGVSPQQVASAIAEAKARLF", "soluble on expression in E. coli": "not soluble"}
{"sequence": "MEQFLDNIKDLEVTTVVRAQEALDKKETATFFIGRKTCPYCRKFAGTLSGVVAETKAHIYFINSEEPSQLNDLQAFRSRYGIPTVPGFVHITDGQINVRCDSSMSAQEIKDFAGL", "soluble on expression in E. coli": "soluble"}
{"sequence": "MAHHHHHHMLRWTSRYLCASAAAAAGPEVHRDVEEFAVVIVGGGPSGLSAAIRLKQLAGDQRDSFRVGLVEKGSEIGAHTLSGACVEPHGLDELLPGWREQEGSVLSSMTPVTSDAFHVLIGPSRSVKVPWLPSTLHNRGNYITSLGGICKWLGEQAEALGVEIYPGFAAADVVVDEATGAVTGVQLNDRGVDKSGRRTAQYEPGMIFRAKQTIFAEGCRGSCTKQLEKRFGLRTADNPQTFGLGIKEVWEVPKERHHPGTVMHTVGWPTTDKGHDNTYGGAFLYHYGDGLISCGYVVGLDYSNPYCRPYMEMQKWKTHDLIRGQLEGGRPILYGARTLVEGGFSALPKLHFPGGVLAGDCAGFLNLPKIKGTHTAMKSGMLAAEAVYEDAFKGGKEEAASGVECKSYDDCFRSSWLYKELYTVRNVRQSFYKSFKWGMLYTGITSLLLHGREPWTLKHTTPDNLSLKPAKECVEIKYPKPDGTLTFDLLTNHSRSGTAHNADQPCHLRLKDSKVAEEVNLKAYAGPEARFCPAGVYEFVNDKLVINAQNCLHCKACDIKDPTQNINWTVPEGGGGPNYQAQM", "soluble on expression in E. coli": "not soluble"}
{"sequence": "MGSDKIHHHHHHMATVDLSQLPQPQIIEVLDFEVILREVKAVMIAAFPANQQASVTAALELESEPLNQIAQVIAYRELMLRQRINEGAASCMLSHAVSSDLDNLAANLNTERLVITAETETADAVMENDAAFRLRAQSAFEGLSVAGPTAAYEYFAKSASGKVKDAKAISPSPAVVVVSVISSEANGTASSELLSTVETALSAEDKRPVADRLTVQSAEIVDFAINAVLYLYPGPESEPIHTAAQKALQSWIGEQGMIGRDVARSSIMAALHVQGVQRVSVVEPPHDIVISDTQAAYCTGFTVTTGGIDG", "soluble on expression in E. coli": "not soluble"}
{"sequence": "MRLSRSSHHKTLDEYDFSFQPDLDPRKVRDLATLSFVEGRANAALLGVLVADEVGYQPLERAEARLVFQVISKRYEKGSIILASNKTFSEWGQVGPGFGDEVLATALLGRLLDHCDVISINGPGYRLRNRLKAIERENDVALEHHHHHH", "soluble on expression in E. coli": "not soluble"}
{"sequence": "MAINLNTFAKVSADWYELKKSQPLAENTIKDIWRSLEKYVFPFIGTLPITQLTARHFISALEPIQASGKLETVKRVSQRINEVMDYAVNSGLIPANPAAKIRKAFQTPVKTHMLEHHHHHH", "soluble on expression in E. coli": "not soluble"}
{"sequence": "MHLHISSIPHRNSNNSKGGVLDATGPMLSAKRGALLLQAYHRPGEVISYKAGDYHLVPKKFTVGKRIAVRSYLDRNRTELSDRTFMPQKNWFRPYDLQDGCFDRDHERLSYRFYNLETKVIWKAFDTPELIGMLLHDETVKGNSGMYAPDMLDAALHYTREARYWRCIGITKPFYDRNTLRAHCWEDNGLQVGTLVMSQAMRHALMDLERAVRRKELGLEPNYLWDRWGPIGFIDGARADYLPRFEHNPYVDPDGVDVTEIDVLPFNTHEQIRERYRDFIEPDTAPFEEVFRSPSHGSLTTLADIPNASVVALYKDLKLKAGTPVAGDAVELAPADVRTLFYLSANPEWRAVADGKASWEEVVDAMQPVQAELDEKIDAARLLQNTRHNAERVRAFFEEKCGFHDFMYTPDKTITAAVLCYLTELRRICTETAWGAALAKCLTDMERVQGMGRDAFLVYRHIEDAILDKKRRLWAGRFAGESHEESTLDYLLENFGRRAERPRNVGTTGVEFDREQEPIGRQVQRRVLDSDKANKLAEIRRSRGKMWSKKRSVFDALHEKQLQNFNYGVH", "soluble on expression in E. coli": "soluble"}
{"sequence": "KSLLTAKTRNTIIFAFHPQAQKSSVAAAKIVYQAARKAGAPKDFIQWIETPSLENTTALMQNPEIASILATGGPSMVHAALTSGNPSMGVGAGNGAVFIDHTARVRRAAEDLLLSKRFDNGMICATE", "soluble on expression in E. coli": "not soluble"}
{"sequence": "MTTILSVRDVKKVIGKKTIVENISFDVKQGEVFGFLGPNGAGKTTTIRMLVGLIKETEGTISIGGYSIKENFREAMRQIGSIVENPELYTYLTGWENLKQFARMLGGISDERIIEIAHMVHLDERIHDKVKTYSLGMKQRLGIAQALLGNPKLLILDEPTNGLDPAGIRELREFIHKLVKEENMSVFISSHLLSEVQMICDRVAIIHKGKMITVAKVEELIKTASDRVEWIVTPISKTKDMLVDAEEVREVSIEGDRLLCRMHISSISNWNKTFVENGIDVHSVKELVFTLEDLFIELTRGEQHA", "soluble on expression in E. coli": "not soluble"}
